Laboratory results as given in US20200317768A1 (published 2020).

B1: M103205H795-MY446/M103202L889-SK1 (antibody, human IgG1, kappa)
heavy: QVTLKESGPVLVKPTETLTLTCTVSGIDLSHDDISWVRQAPGKGLEWVGIISYAGSTYYASWAKGRLTISKDTSKNQVVLTMTNMDPVDTATYYCARGVPAYSHGGDLWGQGTLVTVSSASTKGPSVFPLAPSSKSTSGGTAALGCLVKDYFPEPVTVSWNSGALTSGVHTFPAVLQSSGLYSLSSVVTVPSSSLGTQTYICNVNHKPSNTKVDKKVEPKSCDKTHTCPPCPAHELLTGPSVFLFPPKPKDTLMISRTPEVTCVVVDVSDEDPEVKFNWYVDGVEVHNAKTKPREEQYNSTYRVVSVLTVLHQDWLNGKEYKCKVSNKALPKPIEKTISKAKGQPREPQVYTLPPSREEMTKNQVSLTCLVKGFYPSDIAVEWESNGQPENNYKTTPPVLDSDGSFFLYSKLTVDKSRWQQGNVFSCSVMHEALHNHYTQKSLSLSP
light: DIVMTQSPATLSLSPGERATLSCTSSQSVYHANWLSWFQQKPGQPPKLLIYWASTLAYGVPSRFSGSGSGTDFTLTISSLQPEDAATYYCAGGYGGGRYAFGQGTKVEIKRTVAAPSVFIFPPSDEQLKSGTASVVCLLNNFYPREAKVQWKVDNALQSGNSQESVTEQDSKDSTYSLSSTLTLSKADYEKHKVYACEVTHQGLSSPVTKSFNRGEC
notes: copies: 2 + 2
B2: M103205H795-MY447/M103202L889-SK1 (antibody, human IgG1, kappa)
heavy: QVTLKESGPVLVKPTETLTLTCTVSGIDLSHDDISWVRQAPGKGLEWVGIISYAGSTYYASWAKGRLTISKDTSKNQVVLTMTNMDPVDTATYYCARGVPAYSHGGDLWGQGTLVTVSSASTKGPSVFPLAPSSKSTSGGTAALGCLVKDYFPEPVTVSWNSGALTSGVHTFPAVLQSSGLYSLSSVVTVPSSSLGTQTYICNVNHKPSNTKVDKKVEPKSCDKTHTCPPCPAIELLTGPSVFLFPPKPKDTLMISRTPEVTCVVVDVSDEDPEVKFNWYVDGVEVHNAKTKPREEQYNSTYRVVSVLTVLHQDWLNGKEYKCKVSNKALPKPIEKTISKAKGQPREPQVYTLPPSREEMTKNQVSLTCLVKGFYPSDIAVEWESNGQPENNYKTTPPVLDSDGSFFLYSKLTVDKSRWQQGNVFSCSVMHEALHNHYTQKSLSLSP
light: DIVMTQSPATLSLSPGERATLSCTSSQSVYHANWLSWFQQKPGQPPKLLIYWASTLAYGVPSRFSGSGSGTDFTLTISSLQPEDAATYYCAGGYGGGRYAFGQGTKVEIKRTVAAPSVFIFPPSDEQLKSGTASVVCLLNNFYPREAKVQWKVDNALQSGNSQESVTEQDSKDSTYSLSSTLTLSKADYEKHKVYACEVTHQGLSSPVTKSFNRGEC
notes: copies: 2 + 2
B3: M103205H795-MY448/M103202L889-SK1 (antibody, human IgG1, kappa)
heavy: QVTLKESGPVLVKPTETLTLTCTVSGIDLSHDDISWVRQAPGKGLEWVGIISYAGSTYYASWAKGRLTISKDTSKNQVVLTMTNMDPVDTATYYCARGVPAYSHGGDLWGQGTLVTVSSASTKGPSVFPLAPSSKSTSGGTAALGCLVKDYFPEPVTVSWNSGALTSGVHTFPAVLQSSGLYSLSSVVTVPSSSLGTQTYICNVNHKPSNTKVDKKVEPKSCDKTHTCPPCPAKELLTGPSVFLFPPKPKDTLMISRTPEVTCVVVDVSDEDPEVKFNWYVDGVEVHNAKTKPREEQYNSTYRVVSVLTVLHQDWLNGKEYKCKVSNKALPKPIEKTISKAKGQPREPQVYTLPPSREEMTKNQVSLTCLVKGFYPSDIAVEWESNGQPENNYKTTPPVLDSDGSFFLYSKLTVDKSRWQQGNVFSCSVMHEALHNHYTQKSLSLSP
light: DIVMTQSPATLSLSPGERATLSCTSSQSVYHANWLSWFQQKPGQPPKLLIYWASTLAYGVPSRFSGSGSGTDFTLTISSLQPEDAATYYCAGGYGGGRYAFGQGTKVEIKRTVAAPSVFIFPPSDEQLKSGTASVVCLLNNFYPREAKVQWKVDNALQSGNSQESVTEQDSKDSTYSLSSTLTLSKADYEKHKVYACEVTHQGLSSPVTKSFNRGEC
notes: copies: 2 + 2
B4: M103205H795-MY459/M103202L889-SK1 (antibody, human IgG1, kappa)
heavy: QVTLKESGPVLVKPTETLTLTCTVSGIDLSHDDISWVRQAPGKGLEWVGIISYAGSTYYASWAKGRLTISKDTSKNQVVLTMTNMDPVDTATYYCARGVPAYSHGGDLWGQGTLVTVSSASTKGPSVFPLAPSSKSTSGGTAALGCLVKDYFPEPVTVSWNSGALTSGVHTFPAVLQSSGLYSLSSVVTVPSSSLGTQTYICNVNHKPSNTKVDKKVEPKSCDKTHTCPPCPDPELLTGPSVFLFPPKPKDTLMISRTPEVTCVVVDVSDEDPEVKFNWYVDGVEVHNAKTKPREEQYNSTYRVVSVLTVLHQDWLNGKEYKCKVSNKALPKPIEKTISKAKGQPREPQVYTLPPSREEMTKNQVSLTCLVKGFYPSDIAVEWESNGQPENNYKTTPPVLDSDGSFFLYSKLTVDKSRWQQGNVFSCSVMHEALHNHYTQKSLSLSP
light: DIVMTQSPATLSLSPGERATLSCTSSQSVYHANWLSWFQQKPGQPPKLLIYWASTLAYGVPSRFSGSGSGTDFTLTISSLQPEDAATYYCAGGYGGGRYAFGQGTKVEIKRTVAAPSVFIFPPSDEQLKSGTASVVCLLNNFYPREAKVQWKVDNALQSGNSQESVTEQDSKDSTYSLSSTLTLSKADYEKHKVYACEVTHQGLSSPVTKSFNRGEC
notes: copies: 2 + 2
B5: M103205H795-MY460/M103202L889-SK1 (antibody, human IgG1, kappa)
heavy: QVTLKESGPVLVKPTETLTLTCTVSGIDLSHDDISWVRQAPGKGLEWVGIISYAGSTYYASWAKGRLTISKDTSKNQVVLTMTNMDPVDTATYYCARGVPAYSHGGDLWGQGTLVTVSSASTKGPSVFPLAPSSKSTSGGTAALGCLVKDYFPEPVTVSWNSGALTSGVHTFPAVLQSSGLYSLSSVVTVPSSSLGTQTYICNVNHKPSNTKVDKKVEPKSCDKTHTCPPCPEPELLTGPSVFLFPPKPKDTLMISRTPEVTCVVVDVSDEDPEVKFNWYVDGVEVHNAKTKPREEQYNSTYRVVSVLTVLHQDWLNGKEYKCKVSNKALPKPIEKTISKAKGQPREPQVYTLPPSREEMTKNQVSLTCLVKGFYPSDIAVEWESNGQPENNYKTTPPVLDSDGSFFLYSKLTVDKSRWQQGNVFSCSVMHEALHNHYTQKSLSLSP
light: DIVMTQSPATLSLSPGERATLSCTSSQSVYHANWLSWFQQKPGQPPKLLIYWASTLAYGVPSRFSGSGSGTDFTLTISSLQPEDAATYYCAGGYGGGRYAFGQGTKVEIKRTVAAPSVFIFPPSDEQLKSGTASVVCLLNNFYPREAKVQWKVDNALQSGNSQESVTEQDSKDSTYSLSSTLTLSKADYEKHKVYACEVTHQGLSSPVTKSFNRGEC
notes: copies: 2 + 2
B6: M103205H795-MY461/M103202L889-SK1 (antibody, human IgG1, kappa)
heavy: QVTLKESGPVLVKPTETLTLTCTVSGIDLSHDDISWVRQAPGKGLEWVGIISYAGSTYYASWAKGRLTISKDTSKNQVVLTMTNMDPVDTATYYCARGVPAYSHGGDLWGQGTLVTVSSASTKGPSVFPLAPSSKSTSGGTAALGCLVKDYFPEPVTVSWNSGALTSGVHTFPAVLQSSGLYSLSSVVTVPSSSLGTQTYICNVNHKPSNTKVDKKVEPKSCDKTHTCPPCPFPELLTGPSVFLFPPKPKDTLMISRTPEVTCVVVDVSDEDPEVKFNWYVDGVEVHNAKTKPREEQYNSTYRVVSVLTVLHQDWLNGKEYKCKVSNKALPKPIEKTISKAKGQPREPQVYTLPPSREEMTKNQVSLTCLVKGFYPSDIAVEWESNGQPENNYKTTPPVLDSDGSFFLYSKLTVDKSRWQQGNVFSCSVMHEALHNHYTQKSLSLSP
light: DIVMTQSPATLSLSPGERATLSCTSSQSVYHANWLSWFQQKPGQPPKLLIYWASTLAYGVPSRFSGSGSGTDFTLTISSLQPEDAATYYCAGGYGGGRYAFGQGTKVEIKRTVAAPSVFIFPPSDEQLKSGTASVVCLLNNFYPREAKVQWKVDNALQSGNSQESVTEQDSKDSTYSLSSTLTLSKADYEKHKVYACEVTHQGLSSPVTKSFNRGEC
notes: copies: 2 + 2
B7: M103205H795-MY462/M103202L889-SK1 (antibody, human IgG1, kappa)
heavy: QVTLKESGPVLVKPTETLTLTCTVSGIDLSHDDISWVRQAPGKGLEWVGIISYAGSTYYASWAKGRLTISKDTSKNQVVLTMTNMDPVDTATYYCARGVPAYSHGGDLWGQGTLVTVSSASTKGPSVFPLAPSSKSTSGGTAALGCLVKDYFPEPVTVSWNSGALTSGVHTFPAVLQSSGLYSLSSVVTVPSSSLGTQTYICNVNHKPSNTKVDKKVEPKSCDKTHTCPPCPGPELLTGPSVFLFPPKPKDTLMISRTPEVTCVVVDVSDEDPEVKFNWYVDGVEVHNAKTKPREEQYNSTYRVVSVLTVLHQDWLNGKEYKCKVSNKALPKPIEKTISKAKGQPREPQVYTLPPSREEMTKNQVSLTCLVKGFYPSDIAVEWESNGQPENNYKTTPPVLDSDGSFFLYSKLTVDKSRWQQGNVFSCSVMHEALHNHYTQKSLSLSP
light: DIVMTQSPATLSLSPGERATLSCTSSQSVYHANWLSWFQQKPGQPPKLLIYWASTLAYGVPSRFSGSGSGTDFTLTISSLQPEDAATYYCAGGYGGGRYAFGQGTKVEIKRTVAAPSVFIFPPSDEQLKSGTASVVCLLNNFYPREAKVQWKVDNALQSGNSQESVTEQDSKDSTYSLSSTLTLSKADYEKHKVYACEVTHQGLSSPVTKSFNRGEC
notes: copies: 2 + 2
B8: M103205H795-MY463/M103202L889-SK1 (antibody, human IgG1, kappa)
heavy: QVTLKESGPVLVKPTETLTLTCTVSGIDLSHDDISWVRQAPGKGLEWVGIISYAGSTYYASWAKGRLTISKDTSKNQVVLTMTNMDPVDTATYYCARGVPAYSHGGDLWGQGTLVTVSSASTKGPSVFPLAPSSKSTSGGTAALGCLVKDYFPEPVTVSWNSGALTSGVHTFPAVLQSSGLYSLSSVVTVPSSSLGTQTYICNVNHKPSNTKVDKKVEPKSCDKTHTCPPCPHPELLTGPSVFLFPPKPKDTLMISRTPEVTCVVVDVSDEDPEVKFNWYVDGVEVHNAKTKPREEQYNSTYRVVSVLTVLHQDWLNGKEYKCKVSNKALPKPIEKTISKAKGQPREPQVYTLPPSREEMTKNQVSLTCLVKGFYPSDIAVEWESNGQPENNYKTTPPVLDSDGSFFLYSKLTVDKSRWQQGNVFSCSVMHEALHNHYTQKSLSLSP
light: DIVMTQSPATLSLSPGERATLSCTSSQSVYHANWLSWFQQKPGQPPKLLIYWASTLAYGVPSRFSGSGSGTDFTLTISSLQPEDAATYYCAGGYGGGRYAFGQGTKVEIKRTVAAPSVFIFPPSDEQLKSGTASVVCLLNNFYPREAKVQWKVDNALQSGNSQESVTEQDSKDSTYSLSSTLTLSKADYEKHKVYACEVTHQGLSSPVTKSFNRGEC
notes: copies: 2 + 2
B9: M103205H795-MY464/M103202L889-SK1 (antibody, human IgG1, kappa)
heavy: QVTLKESGPVLVKPTETLTLTCTVSGIDLSHDDISWVRQAPGKGLEWVGIISYAGSTYYASWAKGRLTISKDTSKNQVVLTMTNMDPVDTATYYCARGVPAYSHGGDLWGQGTLVTVSSASTKGPSVFPLAPSSKSTSGGTAALGCLVKDYFPEPVTVSWNSGALTSGVHTFPAVLQSSGLYSLSSVVTVPSSSLGTQTYICNVNHKPSNTKVDKKVEPKSCDKTHTCPPCPIPELLTGPSVFLFPPKPKDTLMISRTPEVTCVVVDVSDEDPEVKFNWYVDGVEVHNAKTKPREEQYNSTYRVVSVLTVLHQDWLNGKEYKCKVSNKALPKPIEKTISKAKGQPREPQVYTLPPSREEMTKNQVSLTCLVKGFYPSDIAVEWESNGQPENNYKTTPPVLDSDGSFFLYSKLTVDKSRWQQGNVFSCSVMHEALHNHYTQKSLSLSP
light: DIVMTQSPATLSLSPGERATLSCTSSQSVYHANWLSWFQQKPGQPPKLLIYWASTLAYGVPSRFSGSGSGTDFTLTISSLQPEDAATYYCAGGYGGGRYAFGQGTKVEIKRTVAAPSVFIFPPSDEQLKSGTASVVCLLNNFYPREAKVQWKVDNALQSGNSQESVTEQDSKDSTYSLSSTLTLSKADYEKHKVYACEVTHQGLSSPVTKSFNRGEC
notes: copies: 2 + 2

Biological target: T1, human FcγRIIIaV extracellular domain, His-tagged (human, UniProt P08637 17-208)
T1 construct: also called FcgRIIIaV; not shown: C-terminal His-tag
Test: SPR (BIACORE); KD of SG1 divided by KD of variant;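 further: relative to parent M103205H795-SG1 carrying the SG1 human heavy chain constant region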

T1 sequence (P08637 17-208 F176V): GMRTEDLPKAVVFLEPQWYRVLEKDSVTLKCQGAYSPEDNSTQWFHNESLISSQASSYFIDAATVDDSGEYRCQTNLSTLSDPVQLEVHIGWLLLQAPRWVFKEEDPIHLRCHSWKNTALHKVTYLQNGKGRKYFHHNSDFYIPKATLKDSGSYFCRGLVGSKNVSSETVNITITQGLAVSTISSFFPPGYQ

Binder | KD fold (SG1 = 1) [fold]
B1 | 0.1
B2 | 0.2
B3 | 0.1
B4 | 0.1
B5 | 0.1
B6 | 0.3
B7 | 0.3
B8 | 0.2
B9 | 0.2
